Reference: patent publication US20230002480A1

Columns and labels:
Experiment in all cases: cell-based or functional assay
[1] = target: HIV-1 Env of pseudovirus 0815.v3.c3 (HIV-1)
[2] = target: HIV-1 Env of pseudovirus 1006_11_C3_1601 (HIV-1)
[3] = target: HIV-1 Env of pseudovirus 1054_07_TC4_1499 (HIV-1)
[4] = target: HIV-1 Env of pseudovirus 1394C9G1(Rev-) (HIV-1)
[5] = target: HIV-1 Env of pseudovirus 191084 B7-19 (HIV-1)
[6] = target: HIV-1 Env of pseudovirus 191955_A11 (HIV-1)
[7] = target: HIV-1 Env of pseudovirus 235-47 (HIV-1)
[8] = target: HIV-1 Env of pseudovirus 249M B10 (HIV-1)
[9] = target: HIV-1 Env of pseudovirus 3016.v5.c45 (HIV-1)
[10] = target: HIV-1 Env of pseudovirus 62357_14_D3_4589 (HIV-1)
[11] = target: HIV-1 Env of pseudovirus 6244_13_B5_4576 (HIV-1)
[12] = target: HIV-1 Env of pseudovirus 6535.3 (HIV-1)
[13] = target: HIV-1 Env of pseudovirus 7030102001E5(Rev-) (HIV-1)
[14] = target: HIV-1 Env of pseudovirus A07412M1.vrc12 (HIV-1)
[15] = target: HIV-1 Env of pseudovirus BF1266.431a (HIV-1)
[16] = target: HIV-1 Env of pseudovirus BJOX009000.02.4 (HIV-1)
[17] = target: HIV-1 Env of pseudovirus C2101.c01 (HIV-1)
[18] = target: HIV-1 Env of pseudovirus C4118.c09 (HIV-1)
[19] = target: HIV-1 Env of pseudovirus CAP45.2.00.G3 (HIV-1)
[20] = target: HIV-1 Env of pseudovirus CNE17 (HIV-1)
[21] = target: HIV-1 Env of pseudovirus CNE30 (HIV-1)
[22] = target: HIV-1 Env of pseudovirus CNE58 (HIV-1)
[23] = target: HIV-1 Env of pseudovirus Ce1172_H1 (HIV-1)
[24] = target: HIV-1 Env of pseudovirus Ce2060_G9 (HIV-1)
[25] = target: HIV-1 Env of pseudovirus Ce704809221_1B3 (HIV-1)
[26] = target: HIV-1 Env of pseudovirus Du172.17 (HIV-1)
[27] = target: HIV-1 Env of pseudovirus HIV-16845-2.22 (HIV-1)
[28] = target: HIV-1 Env of pseudovirus Q259.d2.17 (HIV-1)
[29] = target: HIV-1 Env of pseudovirus QH0692.42 (HIV-1)
[30] = target: HIV-1 Env of pseudovirus R1166.c01 (HIV-1)
[31] = target: HIV-1 Env of pseudovirus R3265.c06 (HIV-1)
[32] = target: HIV-1 Env of pseudovirus RHPA4259.7 (HIV-1)
[33] = target: HIV-1 Env of pseudovirus T250-4 (HIV-1)
[34] = target: HIV-1 Env of pseudovirus TRO.11 (HIV-1)
[35] = target: HIV-1 Env of pseudovirus WEAU_d15_410_787 (HIV-1)
[36] = target: HIV-1 Env of pseudovirus WITO4160.33 (HIV-1)
[37] = target: HIV-1 Env of pseudovirus X2088_c9 (HIV-1)

3BNC117 (antibody)
IC50, titer in TZM.bl cells [1]: 0.01 µg/mL | IC80, titer in TZM.bl cells [1]: 0.02 µg/mL | neutralization IC50 [2]: 0.03 µg/mL | neutralization IC80 [2]: 0.1 µg/mL | neutralization IC50 [3]: 0.07 µg/mL | neutralization IC80 [3]: 0.49 µg/mL | neutralization IC50 [4]: > 50 µg/mL | neutralization IC80 [4]: > 50 µg/mL | neutralization IC50 [5]: 0.07 µg/mL | neutralization IC80 [5]: 0.23 µg/mL | neutralization IC50 [6]: > 50 µg/mL | neutralization IC80 [6]: > 50 µg/mL | IC50, titer in TZM.bl cells [7]: 0.03 µg/mL | IC80, titer in TZM.bl cells [7]: 0.12 µg/mL | neutralization IC50 [8]: 0.1 µg/mL | neutralization IC80 [8]: 0.4 µg/mL | IC50, titer in TZM.bl cells [9]: 1.38 µg/mL | IC80, titer in TZM.bl cells [9]: > 30 µg/mL | neutralization IC50 [10]: 0.06 µg/mL | neutralization IC80 [10]: 0.26 µg/mL | neutralization IC50 [11]: 0.04 µg/mL | neutralization IC80 [11]: 0.15 µg/mL | neutralization IC50 [12]: 0.55 µg/mL | neutralization IC80 [12]: 2.44 µg/mL | neutralization IC50 [13]: 0.29 µg/mL | neutralization IC80 [13]: 1.44 µg/mL | IC50, titer in TZM.bl cells [14]: 0.02 µg/mL | IC80, titer in TZM.bl cells [14]: 0.1 µg/mL | neutralization IC50 [15]: 0.03 µg/mL | neutralization IC80 [15]: 0.09 µg/mL | IC50, titer in TZM.bl cells [16]: 0.4 µg/mL | IC80, titer in TZM.bl cells [16]: 1.79 µg/mL | IC50, titer in TZM.bl cells [17]: 0.05 µg/mL | IC80, titer in TZM.bl cells [17]: 0.31 µg/mL | IC50, titer in TZM.bl cells [18]: 0.09 µg/mL | IC80, titer in TZM.bl cells [18]: 0.52 µg/mL | neutralization IC50 [19]: 3.88 µg/mL | neutralization IC80 [19]: > 50 µg/mL | neutralization IC50 [20]: 5.76 µg/mL | neutralization IC80 [20]: 43 µg/mL | neutralization IC50 [21]: 0.26 µg/mL | neutralization IC80 [21]: 0.85 µg/mL | neutralization IC50 [22]: 0.25 µg/mL | neutralization IC80 [22]: 2.03 µg/mL | neutralization IC50 [23]: > 50 µg/mL | neutralization IC80 [23]: > 50 µg/mL | neutralization IC50 [24]: 0.24 µg/mL | neutralization IC80 [24]: 0.81 µg/mL | neutralization IC50 [25]: 0.08 µg/mL | neutralization IC80 [25]: 0.31 µg/mL | neutralization IC50 [26]: 1.19 µg/mL | neutralization IC80 [26]: 8.9 µg/mL | neutralization IC50 [27]: 27.5 µg/mL | neutralization IC80 [27]: > 50 µg/mL | neutralization IC50 [28]: 0.01 µg/mL | neutralization IC80 [28]: 0.05 µg/mL | neutralization IC50 [29]: 0.13 µg/mL | neutralization IC80 [29]: 0.49 µg/mL | IC50, titer in TZM.bl cells [30]: 0.17 µg/mL | IC80, titer in TZM.bl cells [30]: 0.64 µg/mL | IC50, titer in TZM.bl cells [31]: 0.48 µg/mL | IC80, titer in TZM.bl cells [31]: 13 µg/mL | neutralization IC50 [32]: < 0.09 µg/mL | neutralization IC80 [32]: < 0.09 µg/mL | IC50, titer in TZM.bl cells [33]: > 15 µg/mL | IC80, titer in TZM.bl cells [33]: > 15 µg/mL | neutralization IC50 [34]: < 0.09 µg/mL | neutralization IC80 [34]: < 0.09 µg/mL | neutralization IC50 [35]: 0.05 µg/mL | neutralization IC80 [35]: 0.19 µg/mL | neutralization IC50 [36]: 0.01 µg/mL | neutralization IC80 [36]: 0.04 µg/mL | IC50, titer in TZM.bl cells [37]: > 50 µg/mL | IC80, titer in TZM.bl cells [37]: > 50 µg/mL

N49P18.1 (antibody)
IC50 [1]: 0.741 µg/mL | IC80 [1]: 8.45 µg/mL | MPI [1]: 99 | IC50 [5]: 5.59 µg/mL | IC80 [5]: 16.9 µg/mL | MPI [5]: 98 | IC50 [6]: > 50 µg/mL | IC80 [6]: > 50 µg/mL | MPI [6]: 33 | IC50 [7]: 23 µg/mL | IC80 [7]: > 50 µg/mL | MPI [7]: 66 | IC50 [9]: > 50 µg/mL | IC80 [9]: > 50 µg/mL | MPI [9]: 49 | IC50 [14]: 41.3 µg/mL | IC80 [14]: > 50 µg/mL | MPI [14]: 54 | IC50 [16]: 0.418 µg/mL | IC80 [16]: 1.43 µg/mL | MPI [16]: 100 | IC50 [17]: 15.3 µg/mL | IC80 [17]: 41.9 µg/mL | MPI [17]: 85 | IC50 [18]: 8.63 µg/mL | IC80 [18]: 23.2 µg/mL | MPI [18]: 93 | IC50 [30]: 19.2 µg/mL | IC80 [30]: > 50 µg/mL | MPI [30]: 78 | IC50 [31]: 27.9 µg/mL | IC80 [31]: > 50 µg/mL | MPI [31]: 66 | IC50 [33]: 4.86 µg/mL | IC80 [33]: 15.1 µg/mL | MPI [33]: 94 | IC50 [37]: 9.08 µg/mL | IC80 [37]: 34.9 µg/mL | MPI [37]: 88
